Several values for one entry are separate records, joined by “and”; a condition that tells them apart may be missing. Equal entries are not always repeated.
biological target: WD-40 repeat-containing protein 5 (WDR5), full-length (human) (UniProt P61964); test: ITC

| Kd | Substance |
| --- | --- |
| 11 µM and 11.8 µM | Histone H3 1–7aa unmodified peptide (from UniProt P68431 2-8) |
| 8.1 µM and 9 µM | Histone H3 1–7aa H3R2me1 peptide (from UniProt P68431 2-8) |
| 10.6 µM and 10.2 µM | Histone H3 1–7aa H3R2me2s peptide (from UniProt P68431 2-8) |

From article PMC7529705
